This passage reports pKd results from PMC9482650, “Quantitative fragmentomics allow affinity mapping of interactomes” (Nature Communications, 2022).

Some targets named below: GRIP2_5, Q9C0E4; GORASP2, Q9H8Y8; TJP1_2, Q07157; GRIP2_3, Q9C0E4; AHNAK1, Q09666; DLG2_3, Q15700; Inadl_4, Q8NI35; HTRA2, O43464.
Holding throughout (assay): holdup assay
Common to all, as to set-up: key: below the threshold = too weak to quantify, mostly under pKd 3.1 to 4

The next assay addresses T1, LNX2_2, Q8N448.
T1 sequence (Q8N448 334-432, limits assumed, looked up): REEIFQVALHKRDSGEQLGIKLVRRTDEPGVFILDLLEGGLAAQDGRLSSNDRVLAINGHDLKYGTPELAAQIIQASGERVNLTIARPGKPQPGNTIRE

The target in a further assay is T2, GRIP1_3, Q9Y3R0.
T2 sequence (Q9Y3R0 247-346, limits assumed, looked up): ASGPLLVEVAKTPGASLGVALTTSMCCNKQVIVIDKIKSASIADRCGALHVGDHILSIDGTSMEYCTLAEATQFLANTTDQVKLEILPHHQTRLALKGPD

In another assay the target is T3, PTPN13_1, Q12923.
T3 sequence (Q12923 1088-1188, limits assumed, looked up): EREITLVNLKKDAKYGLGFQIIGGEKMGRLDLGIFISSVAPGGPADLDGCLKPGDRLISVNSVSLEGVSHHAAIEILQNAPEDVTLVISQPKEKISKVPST

For the next assay, the target named is T4, CARD11, Q9BXL7.
T4 sequence (Q9BXL7 662-765, limits assumed, looked up): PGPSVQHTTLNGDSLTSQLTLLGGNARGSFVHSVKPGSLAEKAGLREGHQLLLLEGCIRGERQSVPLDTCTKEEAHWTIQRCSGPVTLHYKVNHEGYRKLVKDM

Another assay deals with T5, APBA1_1, Q02410.
T5 sequence (Q02410 651-752, limits assumed, looked up): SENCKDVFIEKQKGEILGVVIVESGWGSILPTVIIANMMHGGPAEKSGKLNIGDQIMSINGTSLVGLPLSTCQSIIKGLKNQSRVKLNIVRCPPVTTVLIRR

Another assay deals with T6, GRIP1_5, Q9Y3R0.
T6 sequence (Q9Y3R0 568-668, limits assumed, looked up): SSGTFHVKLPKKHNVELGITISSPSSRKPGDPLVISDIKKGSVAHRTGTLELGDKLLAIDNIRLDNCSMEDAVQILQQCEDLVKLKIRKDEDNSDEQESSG

For another assay, the target named is T7, MPDZ_10, O75970.
T7 sequence (O75970 1624-1722, limits assumed, looked up): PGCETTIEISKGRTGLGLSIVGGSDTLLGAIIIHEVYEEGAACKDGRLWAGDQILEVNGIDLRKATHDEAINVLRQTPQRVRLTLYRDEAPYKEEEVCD

The target of the next assay is T8, GRIP1_2, Q9Y3R0.
T8 sequence (Q9Y3R0 145-248, limits assumed, looked up): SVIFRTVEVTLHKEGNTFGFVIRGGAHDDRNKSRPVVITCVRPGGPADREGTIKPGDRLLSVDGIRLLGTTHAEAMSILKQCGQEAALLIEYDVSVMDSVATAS

The next assay concerns the target T9, MPP6, Q9NZW5.
T9 sequence (Q9NZW5 125-219, limits assumed, looked up): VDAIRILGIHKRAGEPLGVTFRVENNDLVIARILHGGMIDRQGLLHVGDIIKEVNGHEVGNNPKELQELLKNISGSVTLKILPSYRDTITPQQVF

For another assay, the target named is T10, DFNB31_2, Q9P202.
T10 sequence (Q9P202 274-371, limits assumed, looked up): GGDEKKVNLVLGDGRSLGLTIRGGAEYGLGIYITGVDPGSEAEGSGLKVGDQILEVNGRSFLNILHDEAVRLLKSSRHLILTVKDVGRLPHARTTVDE

For a further assay, the target named is T11, SNTA1, Q13424.
T11 sequence (Q13424 82-180, limits assumed, looked up): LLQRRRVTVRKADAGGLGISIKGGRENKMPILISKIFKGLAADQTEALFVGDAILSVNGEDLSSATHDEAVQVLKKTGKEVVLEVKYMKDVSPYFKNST

The target in another assay is T12, TJP3_3, O95049.
T12 sequence (O95049 375-456, limits assumed, looked up): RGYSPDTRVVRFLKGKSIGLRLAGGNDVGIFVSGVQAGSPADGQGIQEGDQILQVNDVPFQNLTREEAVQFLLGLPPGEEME

The target of a further assay is T13, TX1BP3, O14907.
T13 sequence (O14907 10-122, limits assumed, looked up): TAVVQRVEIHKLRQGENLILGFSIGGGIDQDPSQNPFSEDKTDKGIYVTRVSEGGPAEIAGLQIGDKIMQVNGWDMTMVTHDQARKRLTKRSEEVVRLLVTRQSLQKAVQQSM

In another assay the target is T14, SIPA1L2, Q9P2F8.
T14 sequence (Q9P2F8 945-1036, limits assumed, looked up): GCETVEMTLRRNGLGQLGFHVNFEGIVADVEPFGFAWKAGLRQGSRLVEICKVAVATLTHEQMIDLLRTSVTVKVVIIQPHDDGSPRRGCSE

Setting [1] is: plain residues with an end cap or a label only (N-terminal biotin on a linker: ttds).
Setting [2] is: plain residues with an end cap or a label only (N-terminal biotin on a linker: ahx).
The mark [3] stands for this setting: plain residues with an end cap or a label only (N-terminal biotin on a linker: ado-ado).

Chain of GRIP2_3, Q9C0E4 (Q9C0E4 238-339): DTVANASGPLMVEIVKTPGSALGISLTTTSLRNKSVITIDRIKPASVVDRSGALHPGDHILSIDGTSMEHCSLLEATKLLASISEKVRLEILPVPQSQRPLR
Chain of Inadl_4, Q8NI35 (Q8NI35 547-651): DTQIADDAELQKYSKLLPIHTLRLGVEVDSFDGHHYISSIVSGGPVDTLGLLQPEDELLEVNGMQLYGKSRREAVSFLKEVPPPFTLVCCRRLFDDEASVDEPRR
Chain of HTRA2, O43464 (O43464 355-458): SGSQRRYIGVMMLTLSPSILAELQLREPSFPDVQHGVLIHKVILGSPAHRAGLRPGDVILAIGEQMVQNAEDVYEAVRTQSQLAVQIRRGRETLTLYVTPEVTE
Chain of AHNAK1, Q09666 (Q09666 4-100): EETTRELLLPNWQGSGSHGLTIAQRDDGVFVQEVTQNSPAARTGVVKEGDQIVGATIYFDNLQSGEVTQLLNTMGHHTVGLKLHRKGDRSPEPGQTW
Chain of GRIP2_5, Q9C0E4 (Q9C0E4 544-642): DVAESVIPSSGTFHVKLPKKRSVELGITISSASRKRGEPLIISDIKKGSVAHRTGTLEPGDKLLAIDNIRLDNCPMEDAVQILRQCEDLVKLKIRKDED
Chain of TJP1_2, Q07157 (Q07157 181-274): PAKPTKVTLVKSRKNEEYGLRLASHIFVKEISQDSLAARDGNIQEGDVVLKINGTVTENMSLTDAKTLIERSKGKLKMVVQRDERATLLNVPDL

B1: DGKZ, Q13574 (peptide)
chain: IQREDQETAV
By pKd is commonly meant −log10 of the Kd, conventionally taken in molar units. Turning to B1, the pKd result is “below the threshold” in the assay with LNX2_2, Q8N448 (setting [1]); “below the threshold” with GRIP2_5, Q9C0E4 (setting [1]); “below the threshold” with GRIP1_3, Q9Y3R0 (setting [1]); “below the threshold” with PTPN13_1, Q12923 (setting [1]); “below the threshold” in the assay with CARD11, Q9BXL7 (setting [1]); “below the threshold” with APBA1_1, Q02410 (setting [1]). Besides, the pKd result in the assay with GRIP1_5, Q9Y3R0 (setting [1]) was “below the threshold”; in the assay with GORASP2, Q9H8Y8 (setting [1]), “below the threshold”; in the assay with TJP1_2, Q07157 (setting [1]), “below the threshold”; in the assay with MPDZ_10, O75970 (setting [1]), “below the threshold”; with GRIP2_3, Q9C0E4 (setting [1]) it was “below the threshold”; with GRIP1_2, Q9Y3R0 (setting [1]) it was “below the threshold”. The negative logarithm of the Kd (pKd) result was “below the threshold” with MPP6, Q9NZW5 (setting [1]); “below the threshold” with DFNB31_2, Q9P202 (setting [1]); 5.37 with SNTA1, Q13424 (setting [1]); “below the threshold” in the assay with TJP3_3, O95049 (setting [1]); 4.18 with TX1BP3, O14907 (setting [1]); “below the threshold” with SIPA1L2, Q9P2F8 (setting [1]). The negative logarithm of the Kd (pKd) entry with AHNAK1, Q09666 (setting [1]) is “below the threshold”; with DLG2_3, Q15700 (setting [1]), 4.38; in the assay with Inadl_4, Q8NI35 (setting [1]), “below the threshold”; with HTRA2, O43464 (setting [1]), “below the threshold”.

B2: RGS12, O14924 (peptide)
chain: KTSAHHATFV
For the molecule B2, the pKd with LNX2_2, Q8N448 (setting [2]) was 4.62; in the assay with GRIP2_5, Q9C0E4 (setting [2]) it was “below the threshold”; with GRIP1_3, Q9Y3R0 (setting [2]), “below the threshold”; in the assay with PTPN13_1, Q12923 (setting [2]) it was “below the threshold”; in the assay with CARD11, Q9BXL7 (setting [2]), “below the threshold”; with APBA1_1, Q02410 (setting [2]) it was “below the threshold”. In addition, the negative logarithm of the Kd (pKd) entry with GRIP1_5, Q9Y3R0 (setting [2]) is “below the threshold”; with GORASP2, Q9H8Y8 (setting [2]) it was 4.12; in the assay with TJP1_2, Q07157 (setting [2]), “below the threshold”; with MPDZ_10, O75970 (setting [2]) it was 3.98; with GRIP2_3, Q9C0E4 (setting [2]) it was “below the threshold”; with GRIP1_2, Q9Y3R0 (setting [2]), “below the threshold”. In addition, the negative-log Kd (pKd) entry in the assay with MPP6, Q9NZW5 (setting [2]) is “below the threshold”; with DFNB31_2, Q9P202 (setting [2]) it was “below the threshold”; with SNTA1, Q13424 (setting [2]) it was 3.63; with TJP3_3, O95049 (setting [2]), “below the threshold”; with TX1BP3, O14907 (setting [2]), 3.78; in the assay with SIPA1L2, Q9P2F8 (setting [2]), “below the threshold”. Moreover, the pKd entry with AHNAK1, Q09666 (setting [2]) is “below the threshold”; in the assay with DLG2_3, Q15700 (setting [2]), 3.47; in the assay with Inadl_4, Q8NI35 (setting [2]) it was “below the threshold”; with HTRA2, O43464 (setting [2]) it was 3.93.

B3: ARHGEF16, Q5VV41 (peptide)
chain: MERLRVETDV
With B3, the negative logarithm of the Kd (pKd) in the assay with LNX2_2, Q8N448 (setting [1]) is 3.93; in the assay with GRIP2_5, Q9C0E4 (setting [1]), “below the threshold”; with GRIP1_3, Q9Y3R0 (setting [1]) it was “below the threshold”; with PTPN13_1, Q12923 (setting [1]), “below the threshold”; with CARD11, Q9BXL7 (setting [1]) it was “below the threshold”; with APBA1_1, Q02410 (setting [1]), “below the threshold”. Further, the pKd result in the assay with GRIP1_5, Q9Y3R0 (setting [1]) is “below the threshold”; with GORASP2, Q9H8Y8 (setting [1]), 4.25; with TJP1_2, Q07157 (setting [1]), “below the threshold”; with MPDZ_10, O75970 (setting [1]), 3.71; in the assay with GRIP2_3, Q9C0E4 (setting [1]), “below the threshold”; with GRIP1_2, Q9Y3R0 (setting [1]), “below the threshold”. In addition, the pKd entry with MPP6, Q9NZW5 (setting [1]) was “below the threshold”; with DFNB31_2, Q9P202 (setting [1]) it was “below the threshold”; with SNTA1, Q13424 (setting [1]), 4.62; with TJP3_3, O95049 (setting [1]) it was “below the threshold”; with TX1BP3, O14907 (setting [1]) it was 5.04; in the assay with SIPA1L2, Q9P2F8 (setting [1]) it was “below the threshold”. In addition, the negative logarithm of the Kd (pKd) with AHNAK1, Q09666 (setting [1]) is 3.6; with DLG2_3, Q15700 (setting [1]) it was 4.11; with Inadl_4, Q8NI35 (setting [1]) it was “below the threshold”; with HTRA2, O43464 (setting [1]), “below the threshold”.

B4: HTR2C, P28335 (peptide)
chain: SVVSERISSV
As for B4, the pKd in the assay with LNX2_2, Q8N448 (setting [3]) was 3.96; with GRIP2_5, Q9C0E4 (setting [3]) it was “below the threshold”; in the assay with GRIP1_3, Q9Y3R0 (setting [3]) it was “below the threshold”; with PTPN13_1, Q12923 (setting [3]), “below the threshold”; with CARD11, Q9BXL7 (setting [3]), “below the threshold”; with APBA1_1, Q02410 (setting [3]), “below the threshold”. Also, the pKd result with GRIP1_5, Q9Y3R0 (setting [3]) is “below the threshold”; in the assay with GORASP2, Q9H8Y8 (setting [3]) it was 3.89; with TJP1_2, Q07157 (setting [3]), “below the threshold”; with MPDZ_10, O75970 (setting [3]) it was 4.29; with GRIP2_3, Q9C0E4 (setting [3]), “below the threshold”; with GRIP1_2, Q9Y3R0 (setting [3]), “below the threshold”. Moreover, the negative logarithm of the Kd (pKd) entry was “below the threshold” in the assay with MPP6, Q9NZW5 (setting [3]); “below the threshold” in the assay with DFNB31_2, Q9P202 (setting [3]); 4.59 with SNTA1, Q13424 (setting [3]); “below the threshold” in the assay with TJP3_3, O95049 (setting [3]); 4.06 with TX1BP3, O14907 (setting [3]); “below the threshold” with SIPA1L2, Q9P2F8 (setting [3]). Besides, the pKd entry is “below the threshold” in the assay with AHNAK1, Q09666 (setting [3]); 3.89 with DLG2_3, Q15700 (setting [3]); “below the threshold” with Inadl_4, Q8NI35 (setting [3]); “below the threshold” with HTRA2, O43464 (setting [3]).

B5: PBK, Q96KB5 (peptide)
chain: HIVEALETDV
On to B5, for which the negative logarithm of the Kd (pKd) with LNX2_2, Q8N448 (setting [1]) was 3.92; with GRIP2_5, Q9C0E4 (setting [1]) it was “below the threshold”; with GRIP1_3, Q9Y3R0 (setting [1]), “below the threshold”; with PTPN13_1, Q12923 (setting [1]), “below the threshold”; with CARD11, Q9BXL7 (setting [1]), “below the threshold”; in the assay with APBA1_1, Q02410 (setting [1]), “below the threshold”. For the same molecule, the pKd entry with GRIP1_5, Q9Y3R0 (setting [1]) is reported as “below the threshold”; with GORASP2, Q9H8Y8 (setting [1]), “below the threshold”; with TJP1_2, Q07157 (setting [1]), “below the threshold”; in the assay with MPDZ_10, O75970 (setting [1]), “below the threshold”; in the assay with GRIP2_3, Q9C0E4 (setting [1]), “below the threshold”; with GRIP1_2, Q9Y3R0 (setting [1]) it was “below the threshold”. For the same molecule, the pKd result was “below the threshold” with MPP6, Q9NZW5 (setting [1]); “below the threshold” in the assay with DFNB31_2, Q9P202 (setting [1]); 5.28 in the assay with SNTA1, Q13424 (setting [1]); “below the threshold” in the assay with TJP3_3, O95049 (setting [1]); 5.03 with TX1BP3, O14907 (setting [1]); “below the threshold” with SIPA1L2, Q9P2F8 (setting [1]). In addition, the negative logarithm of the Kd (pKd) entry was “below the threshold” with AHNAK1, Q09666 (setting [1]); 3.7 with DLG2_3, Q15700 (setting [1]); “below the threshold” with Inadl_4, Q8NI35 (setting [1]); “below the threshold” with HTRA2, O43464 (setting [1]).
